Experimental data as given in patent publication US12297453B2, “Generation of norepinephrine neurons from human stem cells” (Wisconsin Alumni Research Foundation, priority 2020, dated 2025).

Test system: hindbrain R1 neuroepithelial cells
Test: NE progenitor fate specification of hindbrain R1 neuroepithelial cells (qPCR of MASH1, PHOX2B, PHOX2A and regional markers)
Assay type: cell-based, human
Details: for effect on expression of MASH1, PHOX2B, and PHOX2A: day 6 to day 12
From the text: On day 5, change the medium without SB431542. […] Cells were feed daily.
Development of NE neurons in LC depends on expression of Mash1, Phox2b and Phox2a in a stage dependent manner. See Pattyn et al., 2000, Mol Cell Neurosci, 15:235-243; Morin et al., 1997, Neuron, 18:411-423; Hirsch et al., 1998, Development, 125:599-608. Mash1 is expressed in the proliferative progenitor cells, while Phox2b and Phox2a are expressed when cells became postmitotic precursors and neurons. Pattyn et al., 2000. […] Thus, the effects of FGF8 and BMPs were tested in the second week of differentiation (FIG. 2B).
In further experiments it was determined whether the unique role of Activin A on human NE neuron specification was regional identity dependent. Neuroepithelial cells ranging from anterior forebrain to posterior hindbrain were obtained using different doses of CHIR99021, and then these neuroepithelial cells were treated with 25 ng/ml Activin A for 6 days.
Specifically, gene expression of MASH1 and PHOX2A/2B at different times was observed when NE progenitors were cultured in the presence of a low dose of Activin A (25 ng/ml) or a high dose of Activin A (125 ng/ml).
To determine whether blockade of BMP pathway or SHH pathway could facilitate NE specification, which could narrow the domain along the dorsal to ventral axis, hindbrain R1 neuroepithelial cells were treated with Activin A with or without BMP and SHH antagonist (FIGS. 3D-3I).

CC(C)Oc1ccc(-c2cnc3c(-c4ccnc5ccccc45)cnn3c2)cc1 [DMH1, 4-[6-(4-Isopropoxyphenyl)pyrazolo[1,5-a]pyrimidin-3-yl]quinoline]
increase of NE progenitor markers (2 μM, with Activin A): 1.5 fold

CC1=C2C[C@H]3[C@@H](CC=C4C[C@@H](O)CC[C@@]43C)[C@@H]2CC[C@]12O[C@@H]1C[C@H](C)CN[C@H]1[C@H]2C [cyclopamine]
effect on NE progenitor markers MASH1 and PHOX2A/2B (2 μM, with Activin A): only minor effects | expression of dorsal markers MATH1 and OLIG3 (2 μM, with Activin A): increased expression

TGF-β1: transforming growth factor β1
effect on expression of MASH1, PHOX2B, and PHOX2A (10 ng/ml): not

B1: Activin A: ligand in TGF-β pathway directing NE cell fate specification (protein, UniProt P08476 311-426, looked up)
Inhibin beta A chain: GLECDGKVNICCKKQFFVSFKDIGWNDWIIAPSGYHANYCEGECPSHIAGTSGSSLSFHSTVINHYRMRGHSPFANLKSCCVPTKLRPMSMLYYDDGQNIIKKDIQNMIVEECGCS
concentration at which MASH1 reached maximum expression level: 25 ng/mL | concentration at which PHOX2B and PHOX2A reached maximum level: 250 ng/mL | effect on expression of MASH1, PHOX2B, and PHOX2A (10 ng/ml): positive effect | PHOX2B expression, high dose (125 ng/ml) versus low dose (25 ng/ml) (day 9): similar | MASH1 expression, high dose (125 ng/ml) versus low dose (25 ng/ml) (day 9 to day 12): no obvious difference | PHOX2B expression, high dose (125 ng/ml) versus low dose (25 ng/ml) (day 12): over 2 fold | increase of MASH1, PHOX2B, and PHOX2A expression with dose (series of Activin A concentrations): dose-dependent manner

B2: BMP7: bone morphogenetic protein (protein, UniProt P18075 293-431, looked up)
Bone morphogenetic protein 7: STGSKQRSQNRSKTPKNQEALRMANVAENSSSDQRQACKKHELYVSFRDLGWQDWIIAPEGYAAYYCEGECAFPLNSYMNATNHAIVQTLVHFINPETVPKPCCAPTQLNAISVLYFDDSSNVILKKYRNMVVRACGCH
effect on expression of MASH1, PHOX2B, and PHOX2A (10 ng/ml): no obvious effects

B3: BMP4: bone morphogenetic protein (protein, UniProt P12644 293-408, looked up)
Bone morphogenetic protein 4: SPKHHSQRARKKNKNCRRHSLYVDFSDVGWNDWIVAPPGYQAFYCHGDCPFPLADHLNSTNHAIVQTLVNSVNSSIPKACCVPTELSAISMLYLDEYDKVVLKNYQEMVVEGCGCR
effect on expression of MASH1, PHOX2B, and PHOX2A (10 ng/ml): no obvious effects

B4: BMP5: bone morphogenetic protein (protein, UniProt P22003 317-454, looked up)
Bone morphogenetic protein 5: AANKRKNQNRNKSSSHQDSSRMSSVGDYNTSEQKQACKKHELYVSFRDLGWQDWIIAPEGYAAFYCDGECSFPLNAHMNATNHAIVQTLVHLMFPDHVPKPCCAPTKLNAISVLYFDDSSNVILKKYRNMVVRSCGCH
effect on expression of MASH1, PHOX2B, and PHOX2A (10 ng/ml): no obvious effects

B5: FGF8: growth factor tested for NE fate specification (protein, UniProt P55075 23-233, looked up)
Fibroblast growth factor 8: QEGPGRGPALGRELASLFRAGREPQGVSQQHVREQSLVTDQLSRRLIRTYQLYSRTSGKHVQVLANKRINAMAEDGDPFAKLIVETDTFGSRVRVRGAETGLYICMNKKGKLIAKSNGKGKDCVFTEIVLENNYTALQNAKYEGWYMAFTRKGRPRKGSKTRQHQREVHFMKRLPRGHHTTEQSLRFEFLNYPPFTRSLRGSQRTWAPEPR
effect on expression of MASH1, PHOX2B, and PHOX2A (100 ng/ml): no obvious effects
